{"source": "paper PMC10397247", "key": {"[1]": {"molecular_target": "T1, O3-bP", "T1 chain": "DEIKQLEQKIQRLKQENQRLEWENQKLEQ", "experiment": "two-hybrid library CCNG1;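 also: natural log of median RNA to DNA barcode read ratio; higher means stronger binding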"}, "[2]": {"molecular_target": "T2, 4H2627-bA", "T2 chain": "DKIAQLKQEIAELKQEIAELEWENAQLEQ", "experiment": "two-hybrid library CCNG1"}, "[3]": {"molecular_target": "T3, 4H1831-bA", "T3 chain": "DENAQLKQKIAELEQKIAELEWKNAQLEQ", "experiment": "two-hybrid library CCNG1"}, "[4]": {"molecular_target": "T4, 4H968-bA", "T4 chain": "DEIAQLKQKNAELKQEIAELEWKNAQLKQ", "experiment": "two-hybrid library CCNG1"}, "[5]": {"molecular_target": "T5, 4H575-bA", "T5 chain": "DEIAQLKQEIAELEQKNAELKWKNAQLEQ", "experiment": "two-hybrid library CCNG1"}, "[6]": {"molecular_target": "T6, 4H683-bA", "T6 chain": "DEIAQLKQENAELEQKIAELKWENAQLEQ", "experiment": "two-hybrid library CCNG1"}, "[7]": {"molecular_target": "T7, 4H855-bA", "T7 chain": "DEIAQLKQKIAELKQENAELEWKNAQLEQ", "experiment": "two-hybrid library CCNG1"}, "[8]": {"molecular_target": "T8, 4H2586-bA", "T8 chain": "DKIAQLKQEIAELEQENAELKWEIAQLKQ", "experiment": "two-hybrid library CCNG1"}, "[9]": {"molecular_target": "T9, 4H953-bA", "T9 chain": "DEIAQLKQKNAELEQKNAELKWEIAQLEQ", "experiment": "two-hybrid library CCNG1"}, "[10]": {"molecular_target": "T10, 4H3010-bA", "T10 chain": "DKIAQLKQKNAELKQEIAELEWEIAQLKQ", "experiment": "two-hybrid library CCNG1"}, "[11]": {"molecular_target": "T11, 4H3926-bA", "T11 chain": "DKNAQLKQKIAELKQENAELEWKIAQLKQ", "experiment": "two-hybrid library CCNG1"}, "[12]": {"molecular_target": "T12, 4H118-bA", "T12 chain": "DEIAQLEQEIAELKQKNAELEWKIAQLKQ", "experiment": "two-hybrid library CCNG1"}, "[13]": {"molecular_target": "T13, 4H2673-bA", "T13 chain": "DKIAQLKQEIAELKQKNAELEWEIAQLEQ", "experiment": "two-hybrid library CCNG1"}, "[14]": {"molecular_target": "T14, 4H754-bA", "T14 chain": "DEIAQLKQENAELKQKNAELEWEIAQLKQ", "experiment": "two-hybrid library CCNG1"}, "[15]": {"molecular_target": "T15, 4H918-bA", "T15 chain": "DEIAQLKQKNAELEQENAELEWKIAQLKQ", "experiment": "two-hybrid library CCNG1"}, "[16]": {"molecular_target": "T16, 4H170-bA", "T16 chain": "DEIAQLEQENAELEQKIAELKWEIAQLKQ", "experiment": "two-hybrid library CCNG1"}, "[17]": {"molecular_target": "T17, 4H346-bA", "T17 chain": "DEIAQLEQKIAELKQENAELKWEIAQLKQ", "experiment": "two-hybrid library CCNG1"}, "[18]": {"molecular_target": "T18, 4H3112-bA", "T18 chain": "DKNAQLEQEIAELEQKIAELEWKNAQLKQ", "experiment": "two-hybrid library CCNG1"}, "[19]": {"molecular_target": "T19, 4H2702-bA", "T19 chain": "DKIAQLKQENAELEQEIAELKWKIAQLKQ", "experiment": "two-hybrid library CCNG1"}, "[20]": {"molecular_target": "T20, 4H780-bA", "T20 chain": "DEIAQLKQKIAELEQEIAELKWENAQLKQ", "experiment": "two-hybrid library CCNG1"}, "[21]": {"molecular_target": "T21, 4H3427-bA", "T21 chain": "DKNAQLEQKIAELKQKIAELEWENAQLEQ", "experiment": "two-hybrid library CCNG1"}, "[22]": {"molecular_target": "T22, 4H4073-bA", "T22 chain": "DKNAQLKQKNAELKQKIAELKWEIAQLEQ", "experiment": "two-hybrid library CCNG1"}, "[23]": {"molecular_target": "T23, 4H797-bA", "T23 chain": "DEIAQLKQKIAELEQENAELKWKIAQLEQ", "experiment": "two-hybrid library CCNG1"}, "[24]": {"molecular_target": "T24, 4H457-bA", "T24 chain": "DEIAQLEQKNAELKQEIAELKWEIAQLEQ", "experiment": "two-hybrid library CCNG1"}, "[25]": {"molecular_target": "T25, 4H968-bN", "T25 chain": "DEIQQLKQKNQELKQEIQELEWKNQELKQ", "experiment": "two-hybrid library CCNG1"}, "[26]": {"molecular_target": "T26, 4H855-bN", "T26 chain": "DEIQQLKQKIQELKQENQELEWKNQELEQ", "experiment": "two-hybrid library CCNG1"}, "[27]": {"molecular_target": "T27, 4H918-bN", "T27 chain": "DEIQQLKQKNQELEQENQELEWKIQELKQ", "experiment": "two-hybrid library CCNG1"}, "[28]": {"molecular_target": "T28, P1A-bN", "T28 chain": "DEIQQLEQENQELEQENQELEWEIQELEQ", "experiment": "two-hybrid library CCNG1"}, "[29]": {"molecular_target": "T29, 4H953-bN", "T29 chain": "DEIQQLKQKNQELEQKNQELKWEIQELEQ", "experiment": "two-hybrid library CCNG1"}, "[30]": {"molecular_target": "T30, 4H3605-AA", "T30 chain": "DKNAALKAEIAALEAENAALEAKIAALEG", "experiment": "two-hybrid library CCmax", "details": "mean of both orientations"}, "[31]": {"molecular_target": "T31, 4H55-AA", "T31 chain": "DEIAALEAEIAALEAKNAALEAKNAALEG", "experiment": "two-hybrid library CCmax"}, "[32]": {"molecular_target": "T32, 4H4033-AA", "T32 chain": "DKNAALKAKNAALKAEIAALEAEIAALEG", "experiment": "two-hybrid library CCmax", "details": "mean of both orientations"}, "[33]": {"molecular_target": "T33, 4H2536-AA", "T33 chain": "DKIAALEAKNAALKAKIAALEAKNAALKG", "experiment": "two-hybrid library CCmax", "details": "mean of both orientations"}, "[34]": {"molecular_target": "T34, 4H3664-AA", "T34 chain": "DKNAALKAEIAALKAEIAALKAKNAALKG", "experiment": "two-hybrid library CCmax", "details": "mean of both orientations"}, "[35]": {"molecular_target": "T35, 4H2513-AA", "T35 chain": "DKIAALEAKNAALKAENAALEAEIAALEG", "experiment": "two-hybrid library CCmax", "details": "mean of both orientations"}, "[36]": {"molecular_target": "T36, 4H369-AA", "T36 chain": "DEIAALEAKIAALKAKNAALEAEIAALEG", "experiment": "two-hybrid library CCmax", "details": "mean of both orientations"}, "[37]": {"molecular_target": "T37, 4H3922-AA", "T37 chain": "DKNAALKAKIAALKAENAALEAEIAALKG", "experiment": "two-hybrid library CCmax", "details": "mean of both orientations"}, "[38]": {"molecular_target": "T38, 4H2211-AA", "T38 chain": "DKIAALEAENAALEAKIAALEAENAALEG", "experiment": "two-hybrid library CCmax", "details": "mean of both orientations"}, "[39]": {"molecular_target": "T39, 4H2935-AA", "T39 chain": "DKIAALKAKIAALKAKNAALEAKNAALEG", "experiment": "two-hybrid library CCmax", "details": "mean of both orientations"}, "[40]": {"molecular_target": "T40, 4H2608-AA", "T40 chain": "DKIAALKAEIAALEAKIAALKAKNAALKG", "experiment": "two-hybrid library CCmax", "details": "mean of both orientations"}, "[41]": {"molecular_target": "T41, 4H327-AA", "T41 chain": "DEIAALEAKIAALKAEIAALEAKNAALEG", "experiment": "two-hybrid library CCmax", "details": "mean of both orientations"}, "[42]": {"molecular_target": "T42, 4H662-AA", "T42 chain": "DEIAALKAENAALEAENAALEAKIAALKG", "experiment": "two-hybrid library CCmax", "details": "mean of both orientations"}, "[43]": {"molecular_target": "T43, 4H3625-AA", "T43 chain": "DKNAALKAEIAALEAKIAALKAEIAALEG", "experiment": "two-hybrid library CCmax", "details": "mean of both orientations"}, "[44]": {"molecular_target": "T44, 4H2238-AA", "T44 chain": "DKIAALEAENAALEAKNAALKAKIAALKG", "experiment": "two-hybrid library CCmax", "details": "mean of both orientations"}, "[45]": {"molecular_target": "T45, 4H2614-AA", "T45 chain": "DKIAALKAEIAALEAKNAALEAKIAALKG", "experiment": "two-hybrid library CCmax", "details": "mean of both orientations"}, "[46]": {"molecular_target": "T46, 4H175-AA", "T46 chain": "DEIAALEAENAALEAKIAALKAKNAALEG", "experiment": "two-hybrid library CCmax"}, "[47]": {"molecular_target": "T47, 4H481-AA", "T47 chain": "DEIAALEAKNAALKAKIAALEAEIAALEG", "experiment": "two-hybrid library CCmax", "details": "mean of both orientations"}, "[48]": {"molecular_target": "T48, 4H1405-AA", "T48 chain": "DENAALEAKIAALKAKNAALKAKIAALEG", "experiment": "two-hybrid library CCmax"}, "[49]": {"molecular_target": "T49, 4H2726-AA", "T49 chain": "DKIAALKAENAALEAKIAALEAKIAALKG", "experiment": "two-hybrid library CCmax", "details": "mean of both orientations"}}, "data": [{"binder": "DEIAQLEQEIAELKQKNAELEWKIAQLKQ", "note": "[4H118-bA]", "values": [{"measurement": "interaction score", "setting": "[1]", "value": -1.86}, {"measurement": "interaction score", "setting": "[2]", "value": 0.852}, {"measurement": "interaction score", "setting": "[3]", "value": -0.644}, {"measurement": "interaction score", "setting": "[4]", "value": 0.0453}, {"measurement": "interaction score", "setting": "[5]", "value": 0.369}, {"measurement": "interaction score", "setting": "[6]", "value": -0.721}, {"measurement": "interaction score", "setting": "[7]", "value": 0.403}, {"measurement": "interaction score", "setting": "[8]", "value": 0.381}, {"measurement": "interaction score", "setting": "[9]", "value": -0.791}, {"measurement": "interaction score", "setting": "[10]", "value": 2.66}, {"measurement": "interaction score", "setting": "[11]", "value": 1.96}, {"measurement": "interaction score", "setting": "[12]", "value": 1.64}, {"measurement": "interaction score", "setting": "[13]", "value": 1.32}, {"measurement": "interaction score", "setting": "[14]", "value": -1.04}, {"measurement": "interaction score", "setting": "[15]", "value": -0.49}, {"measurement": "interaction score", "setting": "[16]", "value": -0.0431}, {"measurement": "interaction score", "setting": "[17]", "value": -0.612}, {"measurement": "interaction score", "setting": "[18]", "value": 0.131}, {"measurement": "interaction score", "setting": "[19]", "value": 0.439}, {"measurement": "interaction score", "setting": "[20]", "value": 0.087}, {"measurement": "interaction score", "setting": "[21]", "value": 0.236}, {"measurement": "interaction score", "setting": "[22]", "value": -0.156}, {"measurement": "interaction score", "setting": "[23]", "value": -1.22}, {"measurement": "interaction score", "setting": "[24]", "value": -0.384}]}, {"binder": "DEIQQLKQKIQELKQENQELEWKNQELEQ", "note": "[4H855-bN]", "values": [{"measurement": "interaction score", "setting": "[25]", "value": -1.39}, {"measurement": "interaction score", "setting": "[26]", "value": -0.495}, {"measurement": "interaction score", "setting": "[27]", "value": -0.862}, {"measurement": "interaction score", "setting": "[28]", "value": -0.584}, {"measurement": "interaction score", "setting": "[29]", "value": -0.67}]}, {"binder": "DENAALEAKIAALKAKNAALKAKIAALEG", "note": "[4H1405-AA]", "values": [{"measurement": "interaction score", "setting": "[30]", "value": 2.26}, {"measurement": "interaction score", "setting": "[31]", "value": -1.42}, {"measurement": "interaction score", "setting": "[32]", "value": -0.407}, {"measurement": "interaction score", "setting": "[33]", "value": -1.01}, {"measurement": "interaction score", "setting": "[34]", "value": -1.67}, {"measurement": "interaction score", "setting": "[35]", "value": -1.52}, {"measurement": "interaction score", "setting": "[36]", "value": -0.585}, {"measurement": "interaction score", "setting": "[37]", "value": 0.997}, {"measurement": "interaction score", "setting": "[38]", "value": 1.88}, {"measurement": "interaction score", "setting": "[39]", "value": -1.84}, {"measurement": "interaction score", "setting": "[40]", "value": -0.735}, {"measurement": "interaction score", "setting": "[41]", "value": -1.19}, {"measurement": "interaction score", "setting": "[42]", "value": 0.709}, {"measurement": "interaction score", "setting": "[43]", "value": -1.11}, {"measurement": "interaction score", "setting": "[44]", "value": -1.22}, {"measurement": "interaction score", "setting": "[45]", "value": 1.52}, {"measurement": "interaction score", "setting": "[46]", "value": 1.87}, {"measurement": "interaction score", "setting": "[47]", "value": -0.893}, {"measurement": "interaction score", "setting": "[48]", "value": -1.08}, {"measurement": "interaction score", "setting": "[49]", "value": 0.87}]}]}
